We go through 15 sequences from the supplement of paper PMC9170038.

The data set deals with K4 kissing-loop RNA reporter. Kind of data set: apparent KD of K4 kissing-loop reporter; higher = weaker reporter binding. The conditions noted are these: Eterna round: R107. As to the method:
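RNA-MaP round R107: designed RNA switches with theophylline, tryptophan, arginine or FMN aptamers are transcribed on-chip within common flanks. They are titrated with a labelled K4 kissing-loop RNA reporter in RNA-MaP buffer (100 mM Tris pH 7.5, 80 mM KCl, 4 mM MgCl2), without ligand or with the indicated ligand. Median apparent KD per design.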

Where [1] appears, read: input ligand: theophylline 20 uM.
[2] abbreviates: input ligand: tryptophan 2.4 mM.
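Further: bound reporter read as fluorescence of individual clusters on recovered sequencing chips by microscopy, with normalized cluster intensities fitted with a binding model.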

“ACUGGAAACAUCACGUAUCCAAAACUGGAUACCAGCUCGGAAACGAGCCCUUGGCAGCCAGAACUUGCAGUGAUGUUGCAAGUAA [Design9]”: the “apparent KD of K4 kissing-loop reporter” value (input ligand: FMN 200 uM) amounted to 386 nM; the “apparent KD of K4 kissing-loop reporter” value (input ligand: arginine 13.2 mM) was found to be 323 nM; the “apparent KD of K4 kissing-loop reporter” value (input ligand: none) was 384 nM; the “apparent KD of K4 kissing-loop reporter” value under setting [1] came out at 392 nM; the “apparent KD of K4 kissing-loop reporter” value under setting [2] amounted to 398 nM.

Consider “AGAAACUUGUAUGUCGGCCCUGCGCGCGAUACCAGCCAAAUGGAUGGCCCUUGGCAGCGCAGCGAGUGAUGUUCGCCCGGCUGAC [Exclusion Theophylline A GF 21]”, for which the “apparent KD of K4 kissing-loop reporter” value (input ligand: FMN 200 uM) was 77 nM; the “apparent KD of K4 kissing-loop reporter” value (input ligand: arginine 13.2 mM) came to 108 nM; the “apparent KD of K4 kissing-loop reporter” value (input ligand: none) was 95.9 nM; the “apparent KD of K4 kissing-loop reporter” value under setting [1] was found to be 110 nM; the “apparent KD of K4 kissing-loop reporter” value under setting [2] stood at 65.7 nM.

For the sequence “AGAACUGUCUGAGAUACCAGCCAAGGAGUGAUGUUCCGGCUCGACGAAACGUCGAGCAAUGGCCCUUGGCAGCUCAGACAGUUCA [Omei KL Theo B SS A v3]”, the “apparent KD of K4 kissing-loop reporter” value was 387 nM (input ligand: FMN 200 uM); 80.9 nM (input ligand: arginine 13.2 mM); 182 nM (input ligand: none); 398 nM under setting [1]; 242 nM under setting [2].

Consider “AGAACUGUCUGAGAUACCAGCCAGGAAGUGAUGUUUCCAGCUCGACGAAAGUCGAGCCAUGGCCCUUGGCAGCUCAGACAGUUCA [Omei KL Theo B SS A v4]”, for which the “apparent KD of K4 kissing-loop reporter” value reads like this: (input ligand: FMN 200 uM) 178 nM; (input ligand: arginine 13.2 mM) 147 nM; (input ligand: none) 149 nM; under setting [1], 118 nM; under setting [2], 166 nM.

Regarding “AGAACUGUCUGAGAUACCAGCCGAGGAGUGAUGUUCCGGCUCGACGAAACGUCGAGCCACGGCCCUUGGCAGCUCAGACAGUUCA [Omei KL Theo B SS A v1]”, the “apparent KD of K4 kissing-loop reporter” value runs as follows: (input ligand: FMN 200 uM) 1360 nM; (input ligand: arginine 13.2 mM) 287 nM; (input ligand: none) 647 nM; under setting [1], 1060 nM; under setting [2], 455 nM.

Take “AGAAGGUCAAAGACCUUCGUGCACACUGAUACCAGUCGCGAAAGCGACCCUUGGCAGCAGGGCAGUGAUGUUGCCAAGUGCACAA [Omei KL Theo A SS A v2]”: the “apparent KD of K4 kissing-loop reporter” value was 252 nM (input ligand: FMN 200 uM); 278 nM (input ligand: arginine 13.2 mM); 267 nM (input ligand: none); 136 nM under setting [1]; 235 nM under setting [2].

In the case of “AGACCACAAAGUGGUCAGUGUUCGCAGCAGCGAGGACCGGUACGGCCGCCACUCGCGAGUGAUGUUCGCGAGAGCUGCGAACACA [Omei KL Tryp A Exc A v7]”, the “apparent KD of K4 kissing-loop reporter” value (input ligand: FMN 200 uM) came out at 101 nM; the “apparent KD of K4 kissing-loop reporter” value (input ligand: arginine 13.2 mM) turned out to be 83.2 nM; the “apparent KD of K4 kissing-loop reporter” value (input ligand: none) was found to be 81.3 nM; the “apparent KD of K4 kissing-loop reporter” value under setting [1] is 83.3 nM; the “apparent KD of K4 kissing-loop reporter” value under setting [2] turned out to be 109 nM.

Take “AGACUACCACACUGUCAAUAGACAGUGAACUAGGAUAUGCUGAUAAGCAGAAGGAGUGAUGUUCCUAAUAAAAGGUAGUCAUAAU [FmnAX 16 #SwitchBubble #StaticStem #K4Early]”: the “apparent KD of K4 kissing-loop reporter” value (input ligand: FMN 200 uM) was determined as 426 nM; the “apparent KD of K4 kissing-loop reporter” value (input ligand: arginine 13.2 mM) came to 431 nM; the “apparent KD of K4 kissing-loop reporter” value (input ligand: none) was found to be 415 nM; the “apparent KD of K4 kissing-loop reporter” value under setting [1] amounted to 587 nM; the “apparent KD of K4 kissing-loop reporter” value under setting [2] is 360 nM.

Regarding “AGACUACCACACUGUCAAUAGACAGUGAACUAGGAUAUGCUGAUAAGCAGAAGGAGUGAUGUUCCUAGGUAGUCAAUAAAAUAAU [FmnAX 13 #SwitchBubble #StaticStem #K4Early]”, the “apparent KD of K4 kissing-loop reporter” value reads like this: (input ligand: FMN 200 uM) 349 nM; (input ligand: arginine 13.2 mM) 350 nM; (input ligand: none) 383 nM; under setting [1], 447 nM; under setting [2], 401 nM.

Regarding “AGACUACCACACUGUCAAUAGACAGUGAACUAGGAUAUGCUGAUAAGCAGAAGGAGUGAUGUUCCUGGGUAGUCAAUAAAAUAAU [FmnAX 13 G67]”, the “apparent KD of K4 kissing-loop reporter” value by setting is: (input ligand: FMN 200 uM) 372 nM; (input ligand: arginine 13.2 mM) 338 nM; (input ligand: none) 367 nM; under setting [1], 427 nM; under setting [2], 364 nM.

Regarding “AGACUACCACACUGUCAAUAGACAGUGGACUAGGAUAUGCUGAUAAGCAGAAGGAGUGAUGUUCCGAGGUAGUCAAUAAAAUAAU [FmnAX 13 G28+G66]”, the “apparent KD of K4 kissing-loop reporter” value reads like this: (input ligand: FMN 200 uM) 304 nM; (input ligand: arginine 13.2 mM) 309 nM; (input ligand: none) 315 nM; under setting [1], 401 nM; under setting [2], 316 nM.

Consider “AGACUACCACACUGUCAAUAGACAGUGGACUAGGAUAUGCUGAUAAGCAGAAGGAGUGAUGUUCCUGGGUAGUCAAUAAAAUAAU [FmnAX 13 G28+G67]”, for which the “apparent KD of K4 kissing-loop reporter” value reads like this: (input ligand: FMN 200 uM) 484 nM; (input ligand: arginine 13.2 mM) 366 nM; (input ligand: none) 526 nM; under setting [1], 696 nM; under setting [2], 425 nM.

For “AGACUACCUACACUGUCAAUAGACAGUGACUAGGAUAUGCUGAUAAGCAGAAGGAGUGAUGUUCCAAAUAAAAGGUGGUAGUCAU [FmnAX 18 #SwitchBubble #StaticStem #K4Early]”, the “apparent KD of K4 kissing-loop reporter” value is, setting by setting: (input ligand: FMN 200 uM) 378 nM; (input ligand: arginine 13.2 mM) 160 nM; (input ligand: none) 142 nM; under setting [1], 152 nM; under setting [2], 111 nM.

Take “AGACUACUGAUAGGAUAUAACAUACUACUCGUAUACCAAAGGUAUACGAGAACCCUUCUAGUGAUGUUAGAAGGGUCGGUAGUCA [Omei KL FMN B Exc B v7]”: the “apparent KD of K4 kissing-loop reporter” value by setting is: (input ligand: FMN 200 uM) 82.6 nM; (input ligand: arginine 13.2 mM) 68 nM; (input ligand: none) 70.9 nM; under setting [1], 70.1 nM; under setting [2], 72.8 nM.

For the sequence “AGACUAUCGUCAAAGACGGUAGUCAAAAGUGAGGAUAUAAGUGAUGUUAGAAGGCACUAAGACUGUAUCGAAUAGAUACGGUCAA [FmnA 2 #K4BetweenAptamer #OpenEnded]”, the “apparent KD of K4 kissing-loop reporter” value turned out to be 1450 nM (input ligand: FMN 200 uM); 425 nM (input ligand: arginine 13.2 mM); 721 nM (input ligand: none); 534 nM under setting [1]; 600 nM under setting [2].
